Assay results as given in publication PMC8530329 (PLoS Pathogens, 2021).

B1: RBD-chAb-45 (antibody, V domains shown)
VH: EVQLQQSGPELVKPGASVKISCKTSGYTFTEYTIYWVKQSLGKSLEWIGGNNPNNDDTTYKQFFKGKATLTVDKSSSTAYMELRSLTSEDSAVYYCARDGYPYYYALDFWGQGTSVTVSS
VL: DIVMTQSQKFMSTSVGDRVSVTCKSSQNVGTNVAWYQQKPGQSPKALIYSASYRYSGVPDHFTGSGSGTDFTLTISNVQSADLAEYFCQQYNNYPWTFGGGTKLEIK
notes: also called S-chAb-45 (in complex with S); source: Expi-293 cells, co-transfected, purified (protein G column)
B2: RBD-chAb-25 (antibody, V domains shown)
VH: EVQLEESGGGLVKPGGSLKLSCAASGFTFSSYTMSWVRQSPEKRLEWVAEISSGGTYTNYPDTATGRFTISRDNAKNTLYLEMSSLRSEDTAMYYCANFGNYEEIAYWGQGTLVTVSA
VL: QIVLTQSPAIMSVSLGERVTMTCTASSSVSSSYLHWYQQKPGSSPKLWIYSTSNLASGVPARFSGSGSGTSYSLTISSMEAEDAATYYCHQYHRSPYTFGGGTKLEIK
notes: also called S-chAb-25 (in complex with S); source: Expi-293 cells, co-transfected, purified (protein G column)

Target: T1, SARS-CoV-2 S_(fm2P) (SARS-CoV-2, original (reference) …, 682RRAR685 → 682GSAG685 | 986KV987 → 986PP987)
T1 construct: also called ectodomain of the SARS-CoV-2 S protein; SARS-CoV-2 S protein
Experiment: cryo-EM structure
Settings: both partners purified

Binder	stoichiometry N
B1	3 chAb (Fab) per S trimer
B2	3 chAb (Fab) per S trimer
